The values below come from publication PMC12605379, “Monomeric Glycine oxidase from Azotobacter vinelandii for Glycine biosensing” (World Journal of Microbiology & Biotechnology, 2025).

In general, Km refers to the concentration of substrate that gives half-maximal velocity. As usually defined, the kcat is the maximal rate divided by the concentration of active sites.

For data set [1], the target named is T1, AviGO (glycine oxidase from A. vinelandii) (Azotobacter vinelandii, UniProt C1DPI5).
T1 construct: gene thiO; codon-optimised synthetic gene in pCold I (NdeI/XbaI), expressed in E. coli BL21(DE3); HisTrap then Q-Sepharose, vector His tag, no cleavage told
T1 sequence (C1DPI5 1-363): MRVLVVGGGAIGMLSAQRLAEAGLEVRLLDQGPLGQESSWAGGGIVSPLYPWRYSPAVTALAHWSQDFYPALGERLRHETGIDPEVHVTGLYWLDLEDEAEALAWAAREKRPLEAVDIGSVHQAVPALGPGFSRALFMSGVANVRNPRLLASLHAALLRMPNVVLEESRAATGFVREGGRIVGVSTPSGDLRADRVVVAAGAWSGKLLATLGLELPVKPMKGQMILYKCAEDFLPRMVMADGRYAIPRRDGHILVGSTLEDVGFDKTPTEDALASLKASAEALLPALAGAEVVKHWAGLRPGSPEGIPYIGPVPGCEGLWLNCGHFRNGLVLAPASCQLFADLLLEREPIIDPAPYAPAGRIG
In words: HRP-coupled H2O2 assay (4-aminoantipyrine / N,N-diethylaniline, […] nm), substrate inhibition model. Type of data set: biochemical. The settings on record: substrate inhibition constant; 100 mM Tris-HCl pH 8.5, free enzyme 20 nM.

In data set [2] the target is T1, AviGO (glycine oxidase from A. vinelandii). In words: UV-visible spectroscopy of the purified enzyme. It counts as binding. The settings on record: copurified cofactor; occupancy, no affinity constant. As to the method: UV-visible spectroscopy of the purified enzyme on AviGO (glycine oxidase from A. vinelandii) | The FAD/AviGO ratio was calculated from UV-visible spectroscopy of the purified enzyme

Substrate in data set [3]: NCC(=O)O
In words: purified protein. It counts as biochemical, Azotobacter vinelandii. The following applies: 100 mM Tris-HCl pH 8.5, free enzyme 20 nM, 0.5-100 mM substrate, abstract prints Km 4.65.

Substrate in data set [4]: CNCC(=O)O
In words: purified protein. Type of data set: biochemical, Azotobacter vinelandii. The settings on record: 100 mM Tris-HCl pH 8.5, free enzyme 20 nM, 0.5-100 mM substrate.

Turning to `NCC(=O)O` [glycine], the “Glycine / ksi” value in data set [1] was 23.00 ± 3.71 mM.

`Cc1cc2nc3c(=O)[nH]c(=O)nc-3n(C[C@H](O)[C@H](O)[C@H](O)COP(=O)(O)OP(=O)(O)OC[C@H]3O[C@@H](n4cnc5c(N)ncnc54)[C@H](O)[C@@H]3O)c2cc1C` [FAD]: the FAD/AviGO ratio in data set [2] was determined as 0.38.

B1: AviGO (glycine oxidase from A. vinelandii) (Azotobacter vinelandii DJ) (protein)
chain: MRVLVVGGGAIGMLSAQRLAEAGLEVRLLDQGPLGQESSWAGGGIVSPLYPWRYSPAVTALAHWSQDFYPALGERLRHETGIDPEVHVTGLYWLDLEDEAEALAWAAREKRPLEAVDIGSVHQAVPALGPGFSRALFMSGVANVRNPRLLASLHAALLRMPNVVLEESRAATGFVREGGRIVGVSTPSGDLRADRVVVAAGAWSGKLLATLGLELPVKPMKGQMILYKCAEDFLPRMVMADGRYAIPRRDGHILVGSTLEDVGFDKTPTEDALASLKASAEALLPALAGAEVVKHWAGLRPGSPEGIPYIGPVPGCEGLWLNCGHFRNGLVLAPASCQLFADLLLEREPIIDPAPYAPAGRIG
notes: codon-optimised synthetic gene in pCold I (NdeI/XbaI), expressed in E. coli BL21(DE3); HisTrap then Q-Sepharose, vector His tag, no cleavage told
As for B1, in “purified protein [3]”, the Michaelis-Menten constant (Km) is given as 4.76 ± 0.83 mM and the catalytic constant (kcat) came out at 0.38 ± 0.03 s⁻¹. Also, in “purified protein [4]”, the Km was 11.09 ± 0.75 mM and the kcat stood at 0.62 ± 0.01 s⁻¹.
